Like-named read-outs stand apart in the source and are kept apart here.

Series [1] deals with T1, GST-OGG1 (mouse, UniProt O08760 1-345). The experiment in a line: EMSA.
Series [2] deals with T1, GST-OGG1. The experiment in a line: EMSA. The source holds these as a separate data set. On the technique in general: Mobility shift assays separate free from complexed probe on a gel.

T1 sequence (O08760 whole entry): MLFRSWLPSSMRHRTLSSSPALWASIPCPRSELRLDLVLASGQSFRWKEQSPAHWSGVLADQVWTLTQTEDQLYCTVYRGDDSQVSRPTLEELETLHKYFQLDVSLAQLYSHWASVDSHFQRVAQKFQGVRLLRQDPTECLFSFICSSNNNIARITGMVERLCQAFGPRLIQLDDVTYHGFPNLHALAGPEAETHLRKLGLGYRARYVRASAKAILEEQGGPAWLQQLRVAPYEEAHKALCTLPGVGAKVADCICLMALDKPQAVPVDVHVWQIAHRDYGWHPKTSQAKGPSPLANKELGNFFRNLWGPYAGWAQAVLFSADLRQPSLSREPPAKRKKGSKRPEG

B1: Cy5-WT (Foxp3 pro) (dsDNA)
DNA 1: AAGTGTGGGTATGGGAGCCAGACTGTCTGGAACAACCTA
DNA 2: TAGGTTGTTCCAGACAGTCTCGCTCCCATACCCACACTT
In the case of B1, the binding result in series [1] is “no binding”.

B2: Cy5-5mC8-oxoG/GC (Foxp3 CNS2) (dsDNA)
DNA 1: GCCGATGAAGCCCAATGCATCCGGCCGCCATGACGTCA
DNA 2: TGACGTCATGGCGGCCGGATGCATTGGGCTTCATCGGC
modifications: 5mC at sense C22; 8-oxoG at sense G23
In the case of B2, the binding result in series [2] is given as “binds”.

These data come from PMC12318175.
